In patent publication US20160039895A1 (published 2016):
Where a chain is given by its changes, count along the chain named. Numbers in names are those of the source. One block for each binder: values may come before it.

Columns and labels:
[1] = biological target: T1, human αvβ3 integrin on cells (human, UniProt P06756 31-1048; P05106 27-788); assay: cell-based or functional assay
[2] = biological target: T2, α5β1 integrin on wild-type K562 cells (UniProt P08648 42-1049; P05556 21-798, limits assumed); assay: flow cytometry on wild-type K562 cells
T2 construct: whole, on cells
T2 sequence (P08648 42-1049 limits assumed, chain 1 of 2): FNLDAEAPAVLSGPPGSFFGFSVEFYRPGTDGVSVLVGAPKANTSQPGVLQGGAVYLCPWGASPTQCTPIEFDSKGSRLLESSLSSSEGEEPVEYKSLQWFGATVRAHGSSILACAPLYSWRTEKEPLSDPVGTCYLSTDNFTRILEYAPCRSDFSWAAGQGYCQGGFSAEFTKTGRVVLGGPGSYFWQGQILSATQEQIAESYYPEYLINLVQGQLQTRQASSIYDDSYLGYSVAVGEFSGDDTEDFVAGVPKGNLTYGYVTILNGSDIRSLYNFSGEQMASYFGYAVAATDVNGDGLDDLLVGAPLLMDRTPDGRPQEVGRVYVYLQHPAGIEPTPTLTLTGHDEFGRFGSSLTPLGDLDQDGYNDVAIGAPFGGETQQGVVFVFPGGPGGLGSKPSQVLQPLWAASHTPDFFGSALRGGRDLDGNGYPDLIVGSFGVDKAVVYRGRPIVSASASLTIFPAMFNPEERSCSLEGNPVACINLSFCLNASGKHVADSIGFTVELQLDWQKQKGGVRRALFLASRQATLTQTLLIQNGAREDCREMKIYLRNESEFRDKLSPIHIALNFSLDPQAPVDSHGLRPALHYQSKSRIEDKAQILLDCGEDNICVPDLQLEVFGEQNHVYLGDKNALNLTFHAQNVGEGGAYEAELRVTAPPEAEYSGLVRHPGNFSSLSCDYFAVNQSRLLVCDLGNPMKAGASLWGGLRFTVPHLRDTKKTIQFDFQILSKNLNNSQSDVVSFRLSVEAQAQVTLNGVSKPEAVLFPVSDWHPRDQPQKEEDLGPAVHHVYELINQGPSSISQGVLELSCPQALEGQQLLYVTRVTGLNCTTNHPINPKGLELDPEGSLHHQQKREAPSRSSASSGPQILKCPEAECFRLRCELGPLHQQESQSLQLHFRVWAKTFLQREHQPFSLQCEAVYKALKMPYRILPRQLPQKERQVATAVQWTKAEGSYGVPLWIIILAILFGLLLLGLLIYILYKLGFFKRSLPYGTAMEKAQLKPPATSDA
T2 sequence (P05556 21-798 limits assumed, chain 2 of 2): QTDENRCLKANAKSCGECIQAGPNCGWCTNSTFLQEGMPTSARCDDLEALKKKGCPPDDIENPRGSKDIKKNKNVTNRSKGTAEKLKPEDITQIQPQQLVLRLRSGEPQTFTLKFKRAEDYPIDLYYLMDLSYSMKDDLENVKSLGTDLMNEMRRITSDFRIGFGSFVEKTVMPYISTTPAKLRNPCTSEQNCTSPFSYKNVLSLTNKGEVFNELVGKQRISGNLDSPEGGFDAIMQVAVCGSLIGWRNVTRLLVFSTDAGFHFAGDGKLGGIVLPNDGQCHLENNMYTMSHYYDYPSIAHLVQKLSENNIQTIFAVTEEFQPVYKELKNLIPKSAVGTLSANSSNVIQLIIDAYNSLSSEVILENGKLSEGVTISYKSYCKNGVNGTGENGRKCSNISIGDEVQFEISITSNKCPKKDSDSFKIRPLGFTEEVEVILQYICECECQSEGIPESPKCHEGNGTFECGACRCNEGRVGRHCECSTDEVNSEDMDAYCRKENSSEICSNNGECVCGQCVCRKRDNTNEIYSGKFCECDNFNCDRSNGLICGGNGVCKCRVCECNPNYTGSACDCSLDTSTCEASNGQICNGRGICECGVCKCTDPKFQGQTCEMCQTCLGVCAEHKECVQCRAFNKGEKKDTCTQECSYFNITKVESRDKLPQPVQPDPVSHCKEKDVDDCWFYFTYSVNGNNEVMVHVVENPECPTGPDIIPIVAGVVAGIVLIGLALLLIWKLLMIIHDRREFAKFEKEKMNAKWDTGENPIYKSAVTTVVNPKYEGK

[3] = biological target: T3, αvβ5 integrin on transfected K562 cells (UniProt P06756 31-1048; P18084 24-799, limits assumed); assay: flow cytometry on K562 cells transfected with αvβ5
T3 construct: whole, on cells

[4] = biological target: T4, αiibβ3 integrin on transfected K562 cells (UniProt P08514 32-1039; P05106 27-788, limits assumed); assay: flow cytometry on K562 cells transfected with αiibβ3
T4 construct: whole, on cells

[5] = biological target: T5, porcine αvβ3 integrin on PAE cells (porcine, UniProt A0A5K1V6L8 31-1052; A0A8D0RDV2 33-793); assay: flow cytometry titration on PAE cells, anti-FLAG detection
T5 construct: whole, on cells

[6] = biological target: T1, human αvβ3 integrin on cells; assay: flow cytometry titration on K562-αvβ3 cells, anti-His detection
[7] = biological target: VEGFR2 and αvβ3 integrin, both expressed on human umbilical vein endothelial cells (HUVEC) (human) (UniProt P35968); assay: flow cytometry titration on HUVEC (VEGFR2 and αvβ3 both present), anti-FLAG detection
[8] = biological target: VEGFR2 and αvβ3 integrin, both expressed on SVR angiosarcoma cells (murine cell line) (murine) (UniProt P35918); assay: flow cytometry titration on SVR cells (VEGFR2 and αvβ3 both present), anti-FLAG detection
Chain of VEGFR2 and αvβ3 integrin, both expressed on SVR angiosarcoma cells (murine cell line) (murine) (P35918 20-1345, chain 1 of 3): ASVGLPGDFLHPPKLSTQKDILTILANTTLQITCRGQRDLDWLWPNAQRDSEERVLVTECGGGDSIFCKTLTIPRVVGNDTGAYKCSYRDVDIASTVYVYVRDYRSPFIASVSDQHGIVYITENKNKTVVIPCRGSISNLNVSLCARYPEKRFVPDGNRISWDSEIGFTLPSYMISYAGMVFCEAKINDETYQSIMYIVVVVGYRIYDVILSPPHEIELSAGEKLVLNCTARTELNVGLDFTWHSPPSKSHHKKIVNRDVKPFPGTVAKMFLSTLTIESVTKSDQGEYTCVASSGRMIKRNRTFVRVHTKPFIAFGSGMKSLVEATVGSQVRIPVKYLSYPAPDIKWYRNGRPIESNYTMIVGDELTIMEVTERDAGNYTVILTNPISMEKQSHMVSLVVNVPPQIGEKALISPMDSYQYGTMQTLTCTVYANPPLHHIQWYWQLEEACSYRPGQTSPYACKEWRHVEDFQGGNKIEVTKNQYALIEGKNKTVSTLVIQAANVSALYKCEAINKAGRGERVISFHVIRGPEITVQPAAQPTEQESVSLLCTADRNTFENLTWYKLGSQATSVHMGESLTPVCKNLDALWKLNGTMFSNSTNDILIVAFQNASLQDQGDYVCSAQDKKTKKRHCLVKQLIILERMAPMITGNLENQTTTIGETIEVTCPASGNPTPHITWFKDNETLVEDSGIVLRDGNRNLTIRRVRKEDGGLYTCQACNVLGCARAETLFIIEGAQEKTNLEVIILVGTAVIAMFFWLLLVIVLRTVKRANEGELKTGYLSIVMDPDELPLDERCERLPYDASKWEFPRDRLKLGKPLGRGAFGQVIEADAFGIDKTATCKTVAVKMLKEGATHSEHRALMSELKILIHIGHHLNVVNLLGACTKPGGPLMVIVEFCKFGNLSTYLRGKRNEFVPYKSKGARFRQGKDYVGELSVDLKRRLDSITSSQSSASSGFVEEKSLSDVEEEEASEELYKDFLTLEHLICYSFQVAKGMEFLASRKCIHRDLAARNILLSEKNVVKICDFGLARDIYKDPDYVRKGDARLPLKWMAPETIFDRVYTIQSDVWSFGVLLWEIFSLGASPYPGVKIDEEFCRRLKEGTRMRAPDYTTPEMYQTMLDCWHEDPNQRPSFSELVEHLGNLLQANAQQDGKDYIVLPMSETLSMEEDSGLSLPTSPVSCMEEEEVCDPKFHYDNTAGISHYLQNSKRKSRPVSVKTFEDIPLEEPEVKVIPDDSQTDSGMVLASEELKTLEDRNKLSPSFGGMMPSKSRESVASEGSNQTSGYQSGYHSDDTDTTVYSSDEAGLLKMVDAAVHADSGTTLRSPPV
Chain of VEGFR2 and αvβ3 integrin, both expressed on SVR angiosarcoma cells (murine cell line) (murine) (P43406 31-1044, chain 2 of 3, further chain): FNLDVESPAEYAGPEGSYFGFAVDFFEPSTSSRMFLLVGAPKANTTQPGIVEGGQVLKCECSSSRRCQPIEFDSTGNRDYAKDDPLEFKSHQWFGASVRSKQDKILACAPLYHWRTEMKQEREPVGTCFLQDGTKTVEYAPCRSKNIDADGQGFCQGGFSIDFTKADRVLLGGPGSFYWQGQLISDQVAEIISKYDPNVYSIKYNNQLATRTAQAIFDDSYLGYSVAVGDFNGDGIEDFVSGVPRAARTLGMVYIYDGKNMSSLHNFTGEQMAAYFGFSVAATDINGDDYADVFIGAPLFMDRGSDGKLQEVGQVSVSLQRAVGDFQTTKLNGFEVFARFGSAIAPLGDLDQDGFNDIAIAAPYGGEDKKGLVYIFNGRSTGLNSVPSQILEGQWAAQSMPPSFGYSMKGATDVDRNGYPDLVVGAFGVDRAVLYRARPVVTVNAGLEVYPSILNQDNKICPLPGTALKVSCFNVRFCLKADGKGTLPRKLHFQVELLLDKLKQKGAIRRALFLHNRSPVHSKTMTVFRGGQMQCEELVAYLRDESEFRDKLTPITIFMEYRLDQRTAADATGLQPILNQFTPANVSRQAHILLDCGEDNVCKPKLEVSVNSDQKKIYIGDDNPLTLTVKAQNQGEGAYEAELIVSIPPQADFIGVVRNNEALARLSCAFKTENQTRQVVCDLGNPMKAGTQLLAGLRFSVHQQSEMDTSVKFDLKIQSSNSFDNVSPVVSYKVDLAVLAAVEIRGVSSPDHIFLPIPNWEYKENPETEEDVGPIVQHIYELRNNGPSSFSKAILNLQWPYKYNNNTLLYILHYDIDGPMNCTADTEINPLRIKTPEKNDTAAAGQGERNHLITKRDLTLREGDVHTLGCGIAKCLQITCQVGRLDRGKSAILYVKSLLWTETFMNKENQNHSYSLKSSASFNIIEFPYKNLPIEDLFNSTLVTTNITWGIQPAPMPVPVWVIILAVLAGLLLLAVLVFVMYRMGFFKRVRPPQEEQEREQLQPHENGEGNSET
Chain of VEGFR2 and αvβ3 integrin, both expressed on SVR angiosarcoma cells (murine cell line) (murine) (O54890 26-787, chain 3 of 3, further chain): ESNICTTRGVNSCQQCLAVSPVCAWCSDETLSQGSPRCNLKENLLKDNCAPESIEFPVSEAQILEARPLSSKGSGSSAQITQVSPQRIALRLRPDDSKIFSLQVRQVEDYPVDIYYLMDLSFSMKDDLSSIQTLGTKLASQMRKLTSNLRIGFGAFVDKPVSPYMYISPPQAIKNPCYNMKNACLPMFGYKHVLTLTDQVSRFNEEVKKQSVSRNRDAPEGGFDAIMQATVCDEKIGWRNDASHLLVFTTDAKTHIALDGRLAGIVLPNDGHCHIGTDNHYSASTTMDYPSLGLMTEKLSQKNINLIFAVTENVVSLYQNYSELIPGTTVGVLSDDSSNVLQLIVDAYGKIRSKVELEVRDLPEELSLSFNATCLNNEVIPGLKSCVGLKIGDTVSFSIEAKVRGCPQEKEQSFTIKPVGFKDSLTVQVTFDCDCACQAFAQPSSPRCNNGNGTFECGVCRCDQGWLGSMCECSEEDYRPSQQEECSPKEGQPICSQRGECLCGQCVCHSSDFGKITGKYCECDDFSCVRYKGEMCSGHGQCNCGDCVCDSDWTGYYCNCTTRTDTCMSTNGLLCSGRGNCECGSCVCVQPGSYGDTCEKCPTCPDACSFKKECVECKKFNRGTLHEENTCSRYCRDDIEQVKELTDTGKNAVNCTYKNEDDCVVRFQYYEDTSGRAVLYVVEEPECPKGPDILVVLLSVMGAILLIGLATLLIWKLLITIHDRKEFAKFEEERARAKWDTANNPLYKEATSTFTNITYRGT

[9] = biological target: T1, human αvβ3 integrin on cells; assay: flow cytometry titration on U87MG cells (no VEGFR2; receptor not named by the filing), anti-FLAG detection
[10] = biological target: T6, human VEGFR2 on cells (PAE/KDR cells, HUVEC) (human, UniProt P35968 20-1356); assay: flow cytometry titration on PAE/KDR cells (also carry porcine αvβ3; filing ascribes binding to VEGFR2), anti-FLAG detection
T6 construct: whole, on cells

[11] = biological target: T1, human αvβ3 integrin on cells; assay: flow cytometry titration on K562-αvβ3 cells
[12] = biological target: T5, porcine αvβ3 integrin on PAE cells; assay: flow cytometry on PAE cells
[13] = biological target: T7, VEGFR2 on SVR angiosarcoma cells (murine cell line) (murine, UniProt P35918 20-1345); assay: flow cytometry on SVR cells
T7 construct: whole, on cells
T7 sequence (P35918 20-1345): as the sequence (P35918 20-1345, chain 1 of 3) above

[14] = biological target: T6, human VEGFR2 on cells (PAE/KDR cells, …); assay: flow cytometry titration on PAE/KDR cells, anti-FLAG detection
[15] = biological target: T1, human αvβ3 integrin on cells; assay: flow cytometry on U87MG cells (no VEGFR2; receptor not named by the filing)
[16] = biological target: T8, recombinant human VEGFR2 extracellular domain (human, UniProt P35968 20-764); assay: SPR (BIAcore 3000), VEGFR2 amine-coupled to CM5 chip, scVEGF as analyte, 1:1 model
T8 construct: extracellular domain; also called KDR; Flk-1

[17] = biological target: VEGFR2 and αvβ3 integrin, both expressed on human umbilical vein endothelial cells (HUVEC) (human) (UniProt P35968); assay: cell-based or functional assay
[18] = biological target: T6, human VEGFR2 on cells (PAE/KDR cells, …); assay: flow cytometry titration on HUVEC, anti-FLAG detection
[19] = biological target: T7, VEGFR2 on SVR angiosarcoma cells …; assay: flow cytometry titration on SVR cells, anti-FLAG detection
[20] = biological target: T6, human VEGFR2 on cells (PAE/KDR cells, …); assay: flow cytometry titration on PAE/KDR cells, optimized conditions of Example 3, anti-FLAG detection
[21] = biological target: T6, human VEGFR2 on cells (PAE/KDR cells, …); assay: flow cytometry titration on HUVEC, optimized conditions of Example 3, anti-FLAG detection
[22] = biological target: T7, VEGFR2 on SVR angiosarcoma cells …; assay: flow cytometry titration on SVR cells, optimized conditions of Example 3, anti-FLAG detection
[23] = biological target: T1, human αvβ3 integrin on cells; assay: flow cytometry on K562-αvβ3 cells

B1: scVEGFrgd-7H (designed binder)
chain: EVVKAMDVYQRSYCHPIETLVDIFQEYPDEIEYIFKPSCVPLMRCGGCCNDAGLECVPTEESNITMQIMRIKPHQGQHIGEMSFLQHNKCECRPKKDGSTSGSGKSSEGKGEVVKFMDVYQRSYCHPIETLVDIFQEYPDEIEYAFKPSCVPLMRCGGCCNDEGLECVPTEESNITMQIMRPGGRGDSAYHIGEMSFLQHNKCECRPKKDTR
notes: Soluble protein from P. pastoris with C-terminal hexahistidine tag, with or without N-terminal FLAG tag; also called scVEGF-7H
- IC50 of inhibition of vitronectin-mediated adhesion of HUVEC cells [1]: < 10 nM
- binding result [2]: no binding
- binding result [3]: no binding
- binding result [4]: no binding
- Kd [5]: 26.5 nM
- Kd [6]: 36 nM
- Kd [7]: 12 nM
- Kd [8]: 18 nM
- Kd [9]: 15.6 nM
- Kd [10]: 16 nM

B4: scVEGF-mM (designed binder)
chain: EVVKAMDVYRRSYCHPVETSVDILQEYPDEIEYIFKPSCVPLMRCGGCCNDAGLECVPTEESNTTMQIMRIKPYRGQHIGEMSFLQHNKCECRPKKDGSTSGSGKSSEGKGEVVKFMDVYQRSYCHPIETLVDIFQEYPDEIEYAFKPSCVSLMRCGGCCNNEGLECVPTEESNITVQIMGAKPHQGQHIGEMSFLQHNKCECRPKKD
notes: Soluble protein with C-terminal hexahistidine tag, with or without N-terminal FLAG tag (tags not included in the parts); also called scVEGFmut-M
- binding result [12]: no binding (tested: 1 µM)
- binding result [13]: no binding (tested: 1 µM)
- binding result [2]: no binding
- binding result [3]: no binding
- binding result [4]: no binding
- Kd [14]: 34 nM
- binding result [15]: no binding (tested: 1 µM)
- Kd [16]: 3.8 nM
- koff [16]: 0.00108 s⁻¹
- kon [16]: 290000 M⁻¹ s⁻¹

B6: scVEGF-mA (designed binder)
chain: EVAKAMDVYQKSYCHPIETLVDILQEYPDEIGYIFKPSCVPLMRCGGCCNDAGLECVPTEESNITMQIMRIKPYQGQHIGEMSFLQHNKCECRPKKDGSTSGSGKSSEGKGEVVKFMDVYQRSYCHPIETLVDIFQEYPDKIEYAFKPSCVPLMRCGGCCNNEGLECVPTEESNITMQITRAKPHQGQHIGEMSFLQHNKCECRPKKD
notes: Soluble protein from P. pastoris with C-terminal hexahistidine tag, with or without N-terminal FLAG tag (tags not included in the parts); also called scVEGFmut-A
- binding result [12]: no binding (tested: 1 µM)
- binding result [2]: no binding
- binding result [3]: no binding
- binding result [4]: no binding
- Kd [18]: 36 nM
- Kd [19]: 13 nM
- Kd [14]: 5.7 nM
- binding result [15]: no binding (tested: 1 µM)
- Kd [16]: 2.1 nM
- koff [16]: 0.00049 s⁻¹
- kon [16]: 240000 M⁻¹ s⁻¹
- Kd [20]: 0.5 nM

B7: scVEGF-mJ (designed binder)
chain: B6 chain with V2I, A3V, M6R, K11R, G32E, Q77H, K141E, T180M, I190T
notes: Soluble protein with C-terminal hexahistidine tag, with or without N-terminal FLAG tag (tags not included in the parts); also called scVEGFmut-J
- binding result [12]: no binding (tested: 1 µM)
- binding result [2]: no binding
- binding result [3]: no binding
- binding result [4]: no binding
- Kd [18]: 39 nM
- Kd [19]: 3 nM
- Kd [14]: 6.9 nM
- binding result [15]: no binding (tested: 1 µM)
- Kd [16]: 1.6 nM
- koff [16]: 0.0003 s⁻¹
- kon [16]: 200000 M⁻¹ s⁻¹
- Kd [20]: 0.5 nM

B8: scVEGF-mE (designed binder)
chain: B6 chain with A3V, K11R, D51G, Y74H, Q75R, K115R, D140N, K141E, T180M
notes: Soluble protein with C-terminal hexahistidine tag, with or without N-terminal FLAG tag (tags not included in the parts); also called scVEGFmut-E
- binding result [12]: no binding (tested: 1 µM)
- binding result [2]: no binding
- binding result [3]: no binding
- binding result [4]: no binding
- Kd [18]: 53 nM
- Kd [19]: 8 nM
- Kd [14]: 6.6 nM
- binding result [15]: no binding (tested: 1 µM)
- Kd [16]: 2.8 nM
- koff [16]: 0.00061 s⁻¹
- kon [16]: 220000 M⁻¹ s⁻¹
- Kd [21]: 0.4 nM
- Kd [22]: 0.7 nM
- Kd [20]: 0.9 nM

B9: scVEGFwt (ligand)
chain: YVEVVKFMDVYQRSYCHPIETLVDIFQEYPDEIEYIFKPSCVPLMRCGGCCNDEGLECVPTEESNITMQIMRIKPHQGQHIGEMSFLQHNKCECRPKKDGSTSGSGKSSEGKGEVVKFMDVYQRSYCHPIETLVDIFQEYPDEIEYIFKPSCVPLMRCGGCCNDEGLECVPTEESNITMQIMRIKPHQGQHIGEMSFLQHNKCECRPKKDTR
notes: also called wild-type scVEGF; single-chain VEGF
- binding result [12]: no binding (tested: 1 µM)
- binding result [23]: no binding (tested: 1 µM)
- Kd [18]: 28 nM
- Kd [19]: 32 nM
- Kd [14]: 9.8 nM
- Kd [16]: 4 nM
- koff [16]: 0.0007 s⁻¹
- kon [16]: 200000 M⁻¹ s⁻¹

Continued, values first:

- Kd [11]: 143 nM
- Kd [6]: 140 nM
B2: scVEGFrgd-7B (designed binder)
chain: B1 chain with G183H, G184D, S188A, A189G, Y190V
notes: Soluble protein from P. pastoris with C-terminal hexahistidine tag, with or without N-terminal FLAG tag

- IC50 of inhibition of vitronectin-mediated adhesion of HUVEC cells [1]: < 10 nM
- binding result [2]: no binding
- binding result [3]: no binding
- binding result [4]: no binding
- Kd [5]: 26.9 nM
- Kd [6]: 37 nM
- Kd [7]: 45 nM
- Kd [8]: 31 nM
- Kd [9]: 29 nM
- Kd [10]: 21 nM
B3: scVEGFrgd-7P (designed binder)
chain: B1 chain with G183A, G184S, A189P, Y190P
notes: Soluble protein from P. pastoris with C-terminal hexahistidine tag, with or without N-terminal FLAG tag; also called scVEGF-7P

- inhibition of VEGF-induced autophosphorylation of VEGFR-2 in HUVEC in the presence of vitronectin [17]: 80%
- IC50 of inhibition of vitronectin-mediated adhesion of HUVEC cells [1]: < 10 nM
- binding result [2]: no binding
- binding result [3]: no binding
- binding result [4]: no binding
- Kd [5]: 18.6 nM
- Kd [6]: 34 nM
- Kd [7]: 6 nM
- Kd [8]: 37 nM
- Kd [9]: 13.9 nM
- Kd [10]: 20 nM
B5: scVEGFrgd-7I (designed binder)
chain: EVVKAMDVYQRSYCHPIETLVDIFQEYPDEIEYIFKPSCVPLMRCGGCCNDAGLECVPTEESNITMQIMRIKPHQGQHIGEMSFLQHNKCECRPKKDGSTSGSGKSSEGKGEVVKFMDVYQRSYCHPIETLVDIFQEYPDEIEYAFKPSCVPLMRCGGCCNDEGLECVPTEESNITMQIMRPSVRRGDSPASHIGEMSFLQHNKCECRPKKDTR
notes: Soluble protein from P. pastoris with C-terminal hexahistidine tag, with or without N-terminal FLAG tag; also called scVEGF-7I

- binding result [12]: no binding (tested: 1 µM)
- Kd [18]: 101 nM
- Kd [14]: 17 nM
- binding result [15]: no binding (tested: 1 µM)
- Kd [16]: 18 nM
- koff [16]: 0.00146 s⁻¹
- kon [16]: 83000 M⁻¹ s⁻¹
- Kd [21]: 44 nM
- Kd [22]: > 40 nM
- Kd [20]: 55 nM
B10: scVEGFmut (designed binder)
chain: B9 chain with F7A, E54A, I147A, I184A
notes: scVEGF with chain 1 F17A, E64A and chain 2 I46A, I83A (VEGF121 numbering); Soluble protein from P. pastoris with C-terminal hexahistidine tag, with or without N-terminal FLAG tag
